B1: Steroid Delta-isomerase, P07445 (parent)
chain: MNLPTAQEVQGLMARYIELVDVGDIEAIVQMYADDATVEDPFGQPPIHGREQIAAFYRQGLGGGKVRACLTGPVRASHNGCGAMPFRVEMVWNGQPCALDVIDVMRFDEHGRIQTMQAYWSEVNLSVREPQ

Variants of: B1
Conditions: Pseudomonas putida; pH 7; 25 °C; Urea; CD; Sodium phosphate 25 mM; reversible: yes; structure 1OH0; whole UniProt chain shown

| Variant | denaturant m value [kcal/mol/M] | denaturant midpoint (higher = more stable) [M] | unfolding free energy [kcal/mol] |
| --- | --- | --- | --- |
| MNLPTAQEVQGLMARYIELVDVGDIEAIVQMYADDATVEDPFGQPPIHGREQIAAFFRQGLGGGKVRACLTGPVRASHNGCGAMPFRVEMVWNGQPCALDVIDVMRFDEHGRIQTMQAYWSEVNLSVREPQ [Y57F] | 2.98 | 4.77 | 20.8 |
| MNLPTAQEVQGLMARFIELVDVGDIEAIVQMYADDATVEDPFGQPPIHGREQIAAFYRQGLGGGKVRACLTGPVRASHNGCGAMPFRVEMVWNGQPCALDVIDVMRFDEHGRIQTMQAYWSEVNLSVREPQ [Y16F] | 3.1 | 4.3 | 19.9 |
| MNLPTAQEVQGLMARYIELVDVGDIEAIVQMFADDATVEDPFGQPPIHGREQIAAFFRQGLGGGKVRACLTGPVRASHNGCGAMPFRVEMVWNGQPCALDVIDVMRFDEHGRIQTMQAYWSEVNLSVREPQ [Y32F Y57F] | 3.05 | 5.81 | 24.3 |
| MNLPTAQEVQGLMARYIELVDVGDIEAIVQMYADDATVEDPFGQPPIHGREQIAAFYRQGLGGGKVRACLTGPVRASHNGCGAMPFRVEMVWNGQPCALDLIDVMRFDEHGRIQTMQAYWSEVNLSVREPQ [V101L] | 3.32 | 4.19 | 20.5 |
| MNLPTAQEVQGLMARYIELVDVGDIEAIVQMFADDATVEDPFGQPPIHGREQIAAFYRQGLGGGKVRACLTGPVRASHNGCGAMPFRVEMVWNGQPCALDVIDVMRFDEHGRIQTMQAYWSEVNLSVREPQ [Y32F] | 3.23 | 5.49 | 24.3 |
| MNLPTAQEVQGLMARYIELVDVGDIEAIVQMFADDATVEDPFGQPPIHGREQIAAFYRQGLGGGKVRACLTGPVRASHNGCGAMPFRVEMVWNGQPCALDLIDVMRFDEHGRIQTMQAYWSEVNLSVREPQ [Y32F V101L] | 2.52 | 4.45 | 17.8 |
| MNLPTAQEVQGLMARYIELVDVGDIEAIVQMYADDATVEDPFGQPPIHGREQIAAFFRQGLGGGKVRACLTGPVRASHNGCGAMPFRVEMVWNGQPCALDLIDVMRFDEHGRIQTMQAYWSEVNLSVREPQ [Y57F V101L] | 2.31 | 4.25 | 16.4 |
